The record followed here is patent publication US20230279089A1.

Assay in all cases: cell-based or functional assay
Experiment [1] deals with BMP1/TLL activity in human serum.
For experiment [2], the target named is BMP1/TLL activity in mouse plasma.
In experiment [3] the target is endogenous BMP1 of human primary cardiac fibroblasts (human), P13497.
In experiment [4] the target is BMP1/TLL activity in rat plasma.

Chain of endogenous BMP1 of human primary cardiac fibroblasts (human), P13497 (P13497 121-986): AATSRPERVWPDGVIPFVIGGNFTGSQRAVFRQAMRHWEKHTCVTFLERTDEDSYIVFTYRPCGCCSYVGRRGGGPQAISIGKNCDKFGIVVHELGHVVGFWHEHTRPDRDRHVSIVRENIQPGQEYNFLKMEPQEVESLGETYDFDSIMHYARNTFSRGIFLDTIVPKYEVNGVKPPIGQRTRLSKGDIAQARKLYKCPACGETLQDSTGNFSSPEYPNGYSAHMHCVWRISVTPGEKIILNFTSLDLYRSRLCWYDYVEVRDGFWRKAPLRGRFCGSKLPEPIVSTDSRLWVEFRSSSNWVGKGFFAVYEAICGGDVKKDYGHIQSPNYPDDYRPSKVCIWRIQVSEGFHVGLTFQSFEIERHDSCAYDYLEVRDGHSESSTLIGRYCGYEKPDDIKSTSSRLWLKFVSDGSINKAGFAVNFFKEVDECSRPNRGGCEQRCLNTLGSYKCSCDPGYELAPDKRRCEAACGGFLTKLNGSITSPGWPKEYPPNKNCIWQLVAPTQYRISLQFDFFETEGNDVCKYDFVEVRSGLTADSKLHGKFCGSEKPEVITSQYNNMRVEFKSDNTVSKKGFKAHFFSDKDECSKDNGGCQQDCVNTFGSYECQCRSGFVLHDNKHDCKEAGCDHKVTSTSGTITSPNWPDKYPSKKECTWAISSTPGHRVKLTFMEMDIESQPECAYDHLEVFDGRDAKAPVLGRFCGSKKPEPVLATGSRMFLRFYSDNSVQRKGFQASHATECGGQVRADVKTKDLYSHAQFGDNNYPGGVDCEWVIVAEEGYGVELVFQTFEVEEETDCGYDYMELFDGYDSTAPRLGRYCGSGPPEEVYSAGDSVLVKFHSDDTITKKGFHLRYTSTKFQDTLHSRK

B1: 13Y039-4B06-4334 human variable region on mouse IgG2a LAGA Fc, mouse cKappa (Compound A) (antibody)
heavy: QVQLVQSGAEVKKPGASVKVSCKASGYTFLGYYMSWVRQAPGQGLEWMGWINPLSGETNYAQKFQGRVTMTRDTSISTAYMELSRLRSDDTAVYYCARDTGELDGMNWYFDLWGRGTLVTVSSAKTTAPSVYPLAPVCGDTTGSSVTLGCLVKGYFPEPVTLTWNSGSLSSGVHTFPAVLQSDLYTLSSSVTVTSSTWPSQSITCNVAHPASSTKVDKKIEPRGPTIKPCPPCKCPAPNLAGAPSVFIFPPKIKDVLMISLSPIVTCVVVDVSEDDPDVQISWFVNNVEVHTAQTQTHREDYNSTLRVVSALPIQHQDWMSGKEFKCKVNNKDLPAPIERTISKPKGSVRAPQVYVLPPPEEEMTKKQVTLTCMVTDFMPEDIYVEWTNNGKTELNYKNTEPVLDSDGSYFMYSKLRVEKKNWVERNSYSCSVVHEGLHNHHTTKSFSRTPGK
light: EIVLTQSPATLSLSPGERATLSCRASQSVSSYLAWYQQKPGQAPRLLIYDASNRATGIPARFSGSGSGTDFTLTISSLEPEDFAVYYCQQSDSWPPTFGGGTKVEIKRADAAPTVSIFPPSSEQLTSGGASVVCFLNNFYPKDINVKWKIDGSERQNGVLNSWTDQDSKDSTYSMSSTLTLTKDEYERHNSYTCEATHKTSTSPIVKSFNRNEC
As to B1, the pIC50, FRET enzyme activity, Human serum (n = 1) in experiment [1] was found to be 10.1. For the same molecule, in experiment [2], the pIC50, FRET enzyme activity, Mouse plasma (n = 1) was 7.5. In experiment [3], the pIC50, scar-in-a-jar (SIJ) assay is 9.8.

B2: 13Y039-4B06-4334 human variable region on rat IgG2b LAGA Fc and rat Kappa (Compound C) (antibody)
heavy: QVQLVQSGAEVKKPGASVKVSCKASGYTFLGYYMSWVRQAPGQGLEWMGWINPLSGETNYAQKFQGRVTMTRDTSISTAYMELSRLRSDDTAVYYCARDTGELDGMNWYFDLWGRGTLVTVSSAQTTAPSVYPLAPGCGDTTSSTVTLGCLVKGYFPEPVTVTWNSGALSSDVHTFPAVLQSGLYTLTSSVTSSTWPSQTVTCNVAHPASSTKVDKKVERRNGGIGHKCPTCPTCHKCPVPELAGAPSVFIFPPKPKDILLISQNAKVTCVVVDVSEEEPDVQFSWFVNNVEVHTAQTQPREEQYNSTFRVVSALPIQHQDWMSGKEFKCKVNNKALPSPIEKTISKPKGLVRKPQVYVMGPPTEQLTEQTVSLTCLTSGFLPNDIGVEWTSNGHIEKNYKNTEPVMDSDGSFFMYSKLNVERSRWDSRAPFVCSVVHEGLHNHHVEKSISRPPGK
light: EIVLTQSPATLSLSPGERATLSCRASQSVSSYLAWYQQKPGQAPRLLIYDASNRATGIPARFSGSGSGTDFTLTISSLEPEDFAVYYCQQSDSWPPTFGGGTKVEIKRADAAPTVSIFPPSTEQLATGGASVVCLMNNFYPRDISVKWKIDGTERRDGVLDSVTDQDSKDSTYSMSSTLSLTKADYESHNLYTCEVVHKTSSSPVVKSFNRNEC
B2: the pIC50, FRET enzyme activity, Human serum (n = 1) in experiment [1] came to 8.7. In addition, the pIC50, FRET enzyme activity, Rat plasma (n = 2) in experiment [4] came to 9.1.
